From patent US20030158083A1, “Method of effecting angiogenesis by modulating the function of a novel endothelia phosphatase” (The Procter & Gamble Company, priority 2002, published 2003)

Columns and labels:
[1] = Phosphatase activity with fluorogenic substrate DiFMUP; assay type: biochemical
Description: Purified, recombinant KAPh phosphatase domain (amino acids 83-464 SEQ ID NO 4) (100 μg/mL) and full-length PTEN (amino acids 1-403) (100 μg/mL) were each mixed with a fluorogenic phosphatase substrate 6,8-difluoro-4-methylumbelliferyl phosphate (DiFMUP) (Molecular Probes, Eugene, Oreg.) at a final concentration of a 100 μM in assay buffer (10 mM sodium acetate, pH 6.0, 150 mM NaCl, 5 mM DTT). Following incubation at ambient temperature for 15 or 60 min., the fluorescence intensity of the 6,8-difluoro-4-methylumbelliferone (DiFMU) product was measured in triplicate and used as an assessment of phosphatase activity. A Victor 5 microplate reader from Wallac (Turku, Finland) was used to read the fluorescence intensity from 384-well microplates (Corning Inc., Corning, N.Y.).

[2] = Peptide phosphatase assay (BIOMOL green); assay type: biochemical; conditions: any peptide substrates examined; data not shown
[3] = biological target: T1, 6xHis-tagged KAPh full-length protein (expressed in HEK 293 cells from pcDNA4/HisMax) (Homo sapiens, UniProt Q63HR2 26-1409, limits assumed); assay: GST pull-down from HEK 293 lysate, anti-HisG blot
T1 construct: Used as HEK 293 cell lysate; also called full-length KAPh; hexahistidine-tagged full-length KAPh
T1 sequence: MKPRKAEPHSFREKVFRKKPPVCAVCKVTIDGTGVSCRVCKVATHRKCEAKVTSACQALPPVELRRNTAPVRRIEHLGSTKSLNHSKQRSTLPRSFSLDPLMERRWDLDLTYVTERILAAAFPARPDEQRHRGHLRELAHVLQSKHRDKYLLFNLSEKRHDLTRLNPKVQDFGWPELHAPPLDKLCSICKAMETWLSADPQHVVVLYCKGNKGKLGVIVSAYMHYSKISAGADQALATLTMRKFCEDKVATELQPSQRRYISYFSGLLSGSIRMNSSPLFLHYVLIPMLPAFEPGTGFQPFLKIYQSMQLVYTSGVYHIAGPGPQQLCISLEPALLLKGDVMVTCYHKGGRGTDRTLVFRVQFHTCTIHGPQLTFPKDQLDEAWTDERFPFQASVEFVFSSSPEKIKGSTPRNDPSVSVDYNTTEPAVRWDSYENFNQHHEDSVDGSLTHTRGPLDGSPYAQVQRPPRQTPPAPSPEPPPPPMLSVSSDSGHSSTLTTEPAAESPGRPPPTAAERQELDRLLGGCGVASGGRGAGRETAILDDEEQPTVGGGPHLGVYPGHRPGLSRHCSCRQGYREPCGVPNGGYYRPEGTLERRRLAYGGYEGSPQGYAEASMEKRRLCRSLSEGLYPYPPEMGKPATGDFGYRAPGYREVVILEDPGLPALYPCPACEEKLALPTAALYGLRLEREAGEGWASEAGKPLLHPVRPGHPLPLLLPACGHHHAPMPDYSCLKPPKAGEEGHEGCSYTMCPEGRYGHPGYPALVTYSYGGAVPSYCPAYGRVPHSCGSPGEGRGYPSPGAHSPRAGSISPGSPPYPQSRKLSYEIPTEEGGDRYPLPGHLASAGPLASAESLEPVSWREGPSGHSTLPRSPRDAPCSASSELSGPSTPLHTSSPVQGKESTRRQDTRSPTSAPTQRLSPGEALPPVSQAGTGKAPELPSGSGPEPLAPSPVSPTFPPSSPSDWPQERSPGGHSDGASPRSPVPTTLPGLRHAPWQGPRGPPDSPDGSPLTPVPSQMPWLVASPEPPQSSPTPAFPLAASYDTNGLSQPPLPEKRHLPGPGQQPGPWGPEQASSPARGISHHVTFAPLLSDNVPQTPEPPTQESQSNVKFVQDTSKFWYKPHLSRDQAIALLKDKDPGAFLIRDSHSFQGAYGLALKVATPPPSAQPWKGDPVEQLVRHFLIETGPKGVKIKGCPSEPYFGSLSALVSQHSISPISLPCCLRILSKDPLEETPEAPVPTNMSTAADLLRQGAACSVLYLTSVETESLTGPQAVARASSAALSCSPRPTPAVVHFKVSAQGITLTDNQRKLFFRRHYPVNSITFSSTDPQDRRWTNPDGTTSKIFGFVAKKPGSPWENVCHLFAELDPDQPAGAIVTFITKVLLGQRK

[4] = biological target: T2, GST (baculovirus-expressed glutathione S-transferase alone) (UniProt P08515 1-218 = GST); assay: GST pull-down from HEK 293 lysate, anti-HisG blot
T2 construct: Control; also called GST alone
T2 sequence (P08515 whole entry): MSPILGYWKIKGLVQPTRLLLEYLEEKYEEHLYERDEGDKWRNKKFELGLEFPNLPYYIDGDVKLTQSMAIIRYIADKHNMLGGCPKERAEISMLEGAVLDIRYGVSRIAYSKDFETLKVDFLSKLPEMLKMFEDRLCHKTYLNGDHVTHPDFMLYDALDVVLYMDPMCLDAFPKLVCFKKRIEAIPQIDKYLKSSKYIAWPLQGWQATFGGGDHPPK

PTEN: full-length PTEN (amino acids 1-403), tumor suppressor with phosphatase activity, used as comparator [reference compound]
fluorescent product (DiFMU) generated, fold over buffer control ([1]; 100 μg/mL protein, 100 μM DiFMUP, pH 6.0, ambient temperature, 60 min incubation): 6 fold | phosphatase activity using peptide substrates [2]: unable to detect significant, reproducible phosphatase activity

B1: KAPh phosphatase domain: purified, recombinant KAPh phosphatase domain (amino acids 83-464 SEQ ID NO 4) (protein, listed as Homo sapiens)
chain: LNHSKQRSTLPRSFSLDPLMERRWDLDLTYVTERILAAAFPARPDEQRHRGHLRELAHVLQSKHRDKYLLFNLSEKRHDLTRLNPKVQDFGWPELHAPPLDKLCSICKAMETWLSADPQHVVVLYCKGNKGKLGVIVSAYMHYSKISAGADQALATLTMRKFCEDKVATELQPSQRRYISYFSGLLSGSIRMNSSPLFLHYVLIPMLPAFEPGTGFQPFLKIYQSMQLVYTSGVYHIAGPGPQQLCISLEPALLLKGDVMVTCYHKGGRGTDRTLVFRVQFHTCTIHGPQLTFPKDQLDEAWTDERFPFQASVEFVFSSSPEKIKGSTPRNDPSVSVDYNTTEPAVRWDSYENFNQHHEDSVDGSLTHTRGPLDGSPYAQVQ
phosphatase activity over time ([1]; 15 or 60 min incubation with DiFMUP): time-dependent increase in phosphatase activity

B2: GST Tie1 wild-type (GST fusion of the intracellular domain of human Tie1) (receptor, UniProt P35590 785-1138, looked up)
chain: CIRRSCLHRRRTFTYQSGSGEETILQFSSGTLTLTRRPKLQPEPLSYPVLEWEDITFEDLIGEGNFGQVIRAMIKKDGLKMNAAIKMLKEYASENDHRDFAGELEVLCKLGHHPNIINLLGACKNRGYLYIAIEYAPYGNLLDFLRKSRVLETDPAFAREHGTASTLSSRQLLRFASDAANGMQYLSEKQFIHRDLAARNVLVGENLASKIADFGLSRGEEVYVKKTMGRLPVRWMAIESLNYSVYTTKSDVWSFGVLLWEIVSLGGTPYCGMTCAELYEKLPQGYRMEQPRNCDDEVYELMRQCWRDRPYERPPFAQIALQLGRMLEARKAYVNMSLFENFTYAGIDATAEEA
modifications: some degree of tyrosine phosphorylation after in vitro autophosphorylation; sites not listed
notes: domain: intracellular domain; also called Tie1 kinase; not shown: glutathione S-transferase (GST) encoded by the pAcGHLT baculovirus transfer vector (Pharmingen); in-frame fusion, linker
binding result [3]: no binding

B3: GST Tie2 wild-type (GST fusion of the intracellular domain of human Tie2/TEK) (receptor, UniProt Q02763 770-1124, looked up)
chain: LQLKRANVQRRMAQAFQNVREEPAVQFNSGTLALNRKVKNNPDPTIYPVLDWNDIKFQDVIGEGNFGQVLKARIKKDGLRMDAAIKRMKEYASKDDHRDFAGELEVLCKLGHHPNIINLLGACEHRGYLYLAIEYAPHGNLLDFLRKSRVLETDPAFAIANSTASTLSSQQLLHFAADVARGMDYLSQKQFIHRDLAARNILVGENYVAKIADFGLSRGQEVYVKKTMGRLPVRWMAIESLNYSVYTTNSDVWSYGVLLWEIVSLGGTPYCGMTCAELYEKLPQGYRLEKPLNCDDEVYDLMRQCWREKPYERPSFAQILVSLNRMLEERKTYVNTTLYEKFTYAGIDCSAEEAA
modifications: some degree of tyrosine phosphorylation after in vitro autophosphorylation; sites not listed
notes: domain: intracellular domain; also called Tie2 kinase; not shown: glutathione S-transferase (GST) encoded by the pAcGHLT baculovirus transfer vector (Pharmingen); in-frame fusion, linker
binding result [3]: no binding

B4: 6xHis-tagged KAPh SH2 domain (expressed in HEK 293 cells from pcDNA4/HisMax) (other, not shown: small tags and cut ends)
chain: WYKPHLSRDQAIALLKDKDPGAFLIRDSHSFQGAYGLALKVATPPPSAQPWKGDPVEQLVRHFLIETGPKGVKIKGCPSEPYFGSLSALVSQHSISPISLPCCLRILS
notes: Used as HEK 293 cell lysate; also called hexahistidine-tagged KAPh SH2 domain; KAPh SH2 domain-containing protein fragment
binding result [4]: no binding
